This data set in a line: collision cross section of modified peptide (TIMS, N2, iRT-aligned); higher = larger / more extended gas-phase ion. In outline:
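Collision cross section values rest on the Mason-Schamp equation applied to calibrated, run-aligned mobility data from synthetic peptides. Mobility (1/K0) was calibrated with three reference ions and aligned per run to the median iRT peptide deviation, and 1–3 technical replicates of the most abundant feature per charge state were averaged. Data came from a timsTOF Pro/HT in dda-PASEF mode (nitrogen, ~2.4 mbar) after a 120-min nanoflow C18 gradient at 60 °C.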

[1] abbreviates: charge state: 3, modification: Biotin.
Where [2] appears, read: charge state: 2, modification: Dimethyl (K).
The mark [3] stands for this setting: charge state: 3, modification: Dimethyl (K).
[4] abbreviates: charge state: 2, modification: Succinyl.
Where [5] appears, read: charge state: 3, modification: Succinyl.
Where [6] appears, read: charge state: 2, modification: Methyl (K).
Where [7] appears, read: charge state: 3, modification: Methyl (K).
Setting [8] is: charge state: 2, modification: Hydroxyproline.
[9] abbreviates: charge state: 3, modification: Hydroxyproline.
[10] abbreviates: charge state: 2, modification: Propionyl.
Where [11] appears, read: charge state: 3, modification: Acetyl (K).
The mark [12] stands for this setting: charge state: 2, modification: GlyGly (K).
[13] abbreviates: charge state: 3, modification: GlyGly (K).

± gives the standard deviation.

For “YEQEHAAIQDKLFQVAK [_YEQEHAAIQDK(Biotin)LFQVAK_]”, the collision cross section under setting [1] is recorded as 538 ± 1.6 Å².
Consider ITLSKHQNVQLPR [_ITLSK(Biotin)HQNVQLPR_], for which the collision cross section under setting [1] worked out at 502.67 Å².
Take LQLEIDQKK [_LQLEIDQK(Dimethyl (K))K_]: the collision cross section is reported as 364.14 ± 0.52 Å² under setting [2] and 427.16 ± 2.1 Å² under setting [3].
As to “TEVLSPNSKVESK [_TEVLSPNSK(Succinyl)VESK_]”, the collision cross section reads like this: under setting [4], 402.26 ± 0.79 Å²; under setting [5], 458.68 ± 13 Å².
Regarding “ANEKTESSSAQQVAVSR [_ANEK(Methyl (K))TESSSAQQVAVSR_]”, the collision cross section is listed as 440.42 Å² under setting [6] and 486.23 ± 1.8 Å² under setting [7].
Take “PRLPATGTFK [_PR(Citrullination (R))LPATGTFK_]”: where the note is “charge state: 2, modification: Citrullination (R)”, the collision cross section is reported as 351.67 ± 5.4 Å².
Regarding “FPGVGVLPGVPTGAGVK [_FPGVGVLP(Hydroxyproline)GVPTGAGVK_]”, the collision cross section runs as follows: under setting [8], 432.68 ± 8.7 Å²; under setting [9], 504.05 ± 5.9 Å².
Turning to LLEEEDSKLK [_LLEEEDSK(Propionyl)LK_], the collision cross section under setting [10] turned out to be 383.32 ± 0.94 Å².
With “SLEEEGAAHSGKR [_SLEEEGAAHSGK(Propionyl)R_]”, the collision cross section under setting [10] was determined as 416.58 ± 0.64 Å² and the collision cross section (charge state: 3, modification: Propionyl) turned out to be 480.52 ± 0.66 Å².
Take “LFVGGIKEDTEEHHLR [_LFVGGIK(Succinyl)EDTEEHHLR_]”: the collision cross section reads like this: under setting [4], 497.55 Å²; under setting [5], 541.97 ± 1.1 Å².
For the sequence “PSVGSQSNQAGQGKR [_PSVGSQSNQAGQGK(Formyl)R_]”, the collision cross section worked out at 402.96 ± 2 Å² (charge state: 2, modification: Formyl) and 470.1 ± 1.8 Å² (charge state: 3, modification: Formyl).
Consider “VGVEAKQPNSAIR [_VGVEAKQP(Hydroxyproline)NSAIR_]”, for which the collision cross section runs as follows: under setting [8], 405.11 ± 0.27 Å²; under setting [9], 482.65 ± 0.83 Å².
For the sequence “GTITVSAQELKDNR [_GTITVSAQELK(Propionyl)DNR_]”, the collision cross section under setting [10] stood at 415.55 Å².
“IDLPAENSNSETIIITGKR [_IDLPAENSNSETIIITGK(Acetyl (K))R_]” returned a collision cross section under setting [11] of 569.63 Å².
With “TQDQISNIKYHEEFEK [_TQDQISNIK(Gluratylation)YHEEFEK_]”, the collision cross section (charge state: 3, modification: Glutarylation) was 554.46 ± 0.14 Å².
The sequence “DSSPTTNSKLSALQR [_DSSPTTNSK(Malonyl)LSALQR_]” had a collision cross section (charge state: 2, modification: Malonyl) of 424.62 ± 0.65 Å² and a collision cross section (charge state: 3, modification: Malonyl) of 494.68 ± 0.88 Å².
Take VETTVTSLKTK [_VETTVTSLK(GlyGly (K))TK_]: the collision cross section by setting is: under setting [12], 391.21 ± 2 Å²; under setting [13], 459.77 ± 2 Å².
As to “TQAYQDQKPGTSGLR [_TQAYQDQK(Crotonyl)PGTSGLR_]”, the collision cross section is, setting by setting: (charge state: 2, modification: Crotonyl) 430.35 ± 3.2 Å²; (charge state: 3, modification: Crotonyl) 480.34 ± 2.8 Å².
As to “INNFSADIKDSK [_INNFSADIK(Methyl (K))DSK_]”, the collision cross section runs as follows: under setting [6], 401.35 ± 2.2 Å²; under setting [7], 451.47 ± 4.8 Å².
TLQKQSVVYGGK [_TLQK(Succinyl)QSVVYGGK_] displayed a collision cross section under setting [4] of 397.13 ± 0.77 Å².
Consider “GSHGQTPSPGALPLGR [_GS(HexNAc (ST))HGQTPSPGALPLGR_]”, for which the collision cross section (charge state: 3, modification: HexNAc (ST)) amounted to 494.18 ± 4.8 Å².
On to “LTEKELAEAASK [_LTEK(Dimethyl (K))ELAEAASK_]”, for which the collision cross section runs as follows: under setting [2], 397.3 ± 0.55 Å²; under setting [3], 456.37 ± 5.1 Å².
Consider SQLANTEPTK [_SQLANT(HexNAc (ST))EPTK_], for which the collision cross section (charge state: 2, modification: HexNAc (ST)) was found to be 372.78 ± 0.59 Å².
As for “SLGEPAAGEGSAKR [_SLGEPAAGEGSAK(Acetyl (K))R_]”, the collision cross section reads like this: (charge state: 2, modification: Acetyl (K)) 382.38 ± 0.43 Å²; under setting [11], 484.93 ± 0.63 Å².
“LGSPSGKTGTCR [_LGSPSGK(hydroxyisobutyryl)TGTCR_]” showed a collision cross section (charge state: 2, modification: hydroxyisobutyryl) of 375.43 Å².
In turn, “TTGFYSGFSEVAEKR [_TTGFYSGFSEVAEK(GlyGly (K))R_]” showed a collision cross section under setting [12] of 463.26 ± 1.6 Å² and a collision cross section under setting [13] of 525.41 ± 1.1 Å².

(Values after the supplement of paper PMC10598134.)
